Results taken from publication PMC13280853.

What was measured:
[1] = molecular target: Tenebrio molitor α-amylase (Tenebrio molitor) (UniProt P56634)
[2] = molecular target: human salivary α-amylase (human) (UniProt P0DUB6)
[3] = molecular target: porcine pancreatic α-amylase (porcine) (UniProt P00690)
UniProt P00690, sequence (P00690 16-511): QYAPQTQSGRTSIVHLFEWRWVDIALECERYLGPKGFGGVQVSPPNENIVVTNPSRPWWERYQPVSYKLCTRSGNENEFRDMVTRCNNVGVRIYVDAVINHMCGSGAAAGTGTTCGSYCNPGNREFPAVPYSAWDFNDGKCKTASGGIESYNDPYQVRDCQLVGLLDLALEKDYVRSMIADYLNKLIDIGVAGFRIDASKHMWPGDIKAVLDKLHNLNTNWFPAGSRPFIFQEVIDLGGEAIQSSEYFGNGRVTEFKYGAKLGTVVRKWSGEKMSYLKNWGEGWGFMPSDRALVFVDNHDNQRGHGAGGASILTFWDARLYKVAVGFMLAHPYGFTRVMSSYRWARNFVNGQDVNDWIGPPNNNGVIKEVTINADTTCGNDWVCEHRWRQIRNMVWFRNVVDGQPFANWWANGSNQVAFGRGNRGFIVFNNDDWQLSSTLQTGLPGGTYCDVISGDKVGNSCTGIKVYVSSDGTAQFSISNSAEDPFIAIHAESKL

UniProt P0DUB6, sequence (P0DUB6 16-511): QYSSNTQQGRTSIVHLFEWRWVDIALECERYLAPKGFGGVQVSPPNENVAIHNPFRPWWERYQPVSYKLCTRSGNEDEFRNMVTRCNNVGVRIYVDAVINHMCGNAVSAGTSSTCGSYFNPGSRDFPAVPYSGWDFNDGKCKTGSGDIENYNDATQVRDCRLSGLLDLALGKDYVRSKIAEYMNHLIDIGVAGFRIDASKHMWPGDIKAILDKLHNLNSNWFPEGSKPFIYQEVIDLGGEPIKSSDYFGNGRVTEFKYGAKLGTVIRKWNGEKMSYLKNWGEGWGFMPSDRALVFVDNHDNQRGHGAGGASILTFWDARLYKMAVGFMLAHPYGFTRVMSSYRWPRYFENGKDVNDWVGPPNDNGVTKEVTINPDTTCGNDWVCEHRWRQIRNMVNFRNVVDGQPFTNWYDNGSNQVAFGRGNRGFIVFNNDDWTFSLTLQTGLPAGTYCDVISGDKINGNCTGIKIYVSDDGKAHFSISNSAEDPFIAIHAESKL
UniProt P56634, sequence (P56634 whole entry): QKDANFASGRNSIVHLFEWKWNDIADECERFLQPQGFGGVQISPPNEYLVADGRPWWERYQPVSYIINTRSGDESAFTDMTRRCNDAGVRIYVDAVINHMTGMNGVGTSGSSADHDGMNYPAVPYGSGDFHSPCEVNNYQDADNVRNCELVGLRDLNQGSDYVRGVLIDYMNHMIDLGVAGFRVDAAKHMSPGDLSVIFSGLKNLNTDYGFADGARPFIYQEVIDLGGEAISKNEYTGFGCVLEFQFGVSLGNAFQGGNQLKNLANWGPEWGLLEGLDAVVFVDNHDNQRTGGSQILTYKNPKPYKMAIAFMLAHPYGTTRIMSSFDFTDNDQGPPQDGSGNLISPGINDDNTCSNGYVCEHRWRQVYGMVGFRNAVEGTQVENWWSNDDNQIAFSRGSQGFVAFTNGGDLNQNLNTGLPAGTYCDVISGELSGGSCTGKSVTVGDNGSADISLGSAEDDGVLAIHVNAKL

Substance | inhibition of T. molitor α-amylase activity (starch hydrolysis, DNS reagent; fraction at 50 μg/mL, 37 °C, 30 min; relative to 5 mM EDTA as 100% inhibition) [1] [%] | inhibition of human salivary α-amylase activity (starch hydrolysis, DNS reagent; fraction at 50 μg/mL, 37 °C, 30 min; relative to 5 mM EDTA as 100% inhibition) [2] [%] | inhibition of porcine pancreatic α-amylase activity (starch hydrolysis, DNS reagent; fraction at 50 μg/mL, 37 °C, 30 min; relative to 5 mM EDTA as 100% inhibition) [3] [%]
LTP-rich fraction P10 from Capsicum chinense seeds | 98 | 93 | 89
subfraction R1 of fraction P10 (lipid transfer protein, Capsicum chinense seeds) | 55 | 91 | 84
subfraction R2 of fraction P10 (lipid transfer protein, Capsicum chinense seeds) | 72 | 85 | 81
subfraction R3 of fraction P10 (lipid transfer protein, Capsicum chinense seeds) | 93 | 92 | 80
